Biological target: full-length AMC011 Env trimer (HIV-1)
Assay: negative-stain EM

PGT145 Fab
stoichiometry N (Fab per trimer): 1

PGT151 Fab
stoichiometry N (Fab per trimer): 2
